Test results as given in PMC6459870.

What was measured:
[1] = target: Xenopus laevis CENP-E-GFP construct (1–473 aa), truncated CENP-E motor (Xenopus laevis); assay: fluorescence microscopy of microtubules on protein-coated beads (MT wall-to-end transition assay); GFP-tagged protein held on coverslip-immobilized 0.9 µm streptavidin beads via biotinylated anti-GFP antibody, one protein per bead; HiLyte647-labeled GMPCPP-stabilized MTs in solution; MTs added with 0.1 mM AMP-PNP, then imaging buffer with ATP; BRB80-based buffer; 32 °C; epifluorescence
[2] = target: Human Broccoli Ndc80-GFP complex (human) (UniProt O14777); assay: fluorescence microscopy of microtubules on protein-coated beads (dynamic MT end-coupling assay); beads coated with Ndc80-GFP only (no CENP-E) via anti-GFP antibody; GMPCPP-stabilized MT seeds, then unlabeled soluble tubulin (6 µM) with 1 mM Mg-GTP; 32 °C
[3] = target: Human Broccoli Ndc80-GFP complex (human) (UniProt O14777)

UniProt O14777, sequence (O14777 whole entry, looked up, one chain of several): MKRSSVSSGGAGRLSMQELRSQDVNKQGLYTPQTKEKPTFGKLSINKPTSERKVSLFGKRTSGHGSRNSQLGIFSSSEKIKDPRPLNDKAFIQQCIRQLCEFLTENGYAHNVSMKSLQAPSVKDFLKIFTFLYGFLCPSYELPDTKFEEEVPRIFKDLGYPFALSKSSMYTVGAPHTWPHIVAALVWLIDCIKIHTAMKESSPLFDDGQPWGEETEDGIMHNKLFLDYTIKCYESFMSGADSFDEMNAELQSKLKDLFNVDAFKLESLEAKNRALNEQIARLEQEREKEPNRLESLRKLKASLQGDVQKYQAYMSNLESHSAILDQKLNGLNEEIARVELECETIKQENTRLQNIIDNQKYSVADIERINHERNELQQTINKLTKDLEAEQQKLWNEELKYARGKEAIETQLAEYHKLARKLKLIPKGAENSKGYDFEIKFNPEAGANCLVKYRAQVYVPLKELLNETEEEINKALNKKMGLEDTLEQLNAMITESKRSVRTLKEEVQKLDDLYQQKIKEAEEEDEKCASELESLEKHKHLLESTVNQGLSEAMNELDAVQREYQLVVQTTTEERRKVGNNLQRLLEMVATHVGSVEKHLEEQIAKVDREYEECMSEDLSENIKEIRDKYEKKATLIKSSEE

- MT end-retention time [1]: 1.1 min
- percent of MT plus-ends retained at the bead [1]: 24%
- percent of MT segments attached via their ends [2]: 3%
- MT end-retention time on beads coated with CENP-E motor and Ndc80 Broccoli (wall-to-end transition assay) [3]: 18.1 min
- percent of MT plus-ends retained on beads coated with CENP-E motor and Ndc80 Broccoli (wall-to-end transition assay) [3]: 80%
Substance: Microtubules polymerised from bovine brain tubulin (from UniProt Q6B856 1-445) (complex)
- Kaplan–Meier survival of MT end-attachments on beads coated with CENP-E motor and Ndc80 Broccoli [3]: > 28 min
